One series addresses T1, Pep25-P2 (ERTYSPS).
T1 chain: ERTYSPS

Another series addresses T2, peptide25 (ERTYSPSTAVRS).
T2 chain: ERTYSPSTAVRS

Consider two proteins from patent publication US20170296617.

B1: ROCK1 (protein)
chain: MSTGDSFETRFEKMDNLLRDPKSEVNSDCLLDGLDALVYDLDFPALRKNKNIDNFLSRYKDTINKIRDLRMKAEDYEVVKVIGRGAFGEVQLVRHKSTRKVYAMKLLSKFEMIKRSDSAFFWEERDIMAFANSPWVVQLFYAFQDDRYLYMVMEYMPGGDLVNLMSNYDVPEKWARFYTAEVVLALDAIHSMGFIHRDVKPDNMLLDKSGHLKLADFGTCMKMNKEGMVRCDTAVGTPDYISPEVLKSQGGDGYYGRECDWWSVGVFLYEMLVGDTPFYADSLVGTYSKIMNHKNSLTFPDDNDISKEAKNLICAFLTDREVRLGRNGVEEIKRHLFFKNDQWAWETLRDTVAPVVPDLSSDIDTSNFDDLEEDKGEEETFPIPKAFVGNQLPFVGFTYYSNRRYLSSANPNDNRTSSNADKSLQESLQKTIYKLEEQLHNEMQLKDEMEQKCRTSNIKLDKIMKELDEEGNQRRNLESTVSQIEKEKMLLQHRINEYQRKAEQENEKRRNVENEVSTLKDQLEDLKKVSQNSQLANEKLSQLQKQLEEANDL
For the protein B1, in the series with Pep25-P2 (ERTYSPS), the “[S6] phosphorylation ratio (pS6 peak area over pS6 plus S6), mass spectrometry of the ROCK reaction with substrate S6” value is “ratio falls with the dose: about 31 at 1 uM, about 29 at 10 uM, about 22 at 30 uM, about 18 at 100 uM; no lower plateau, less than half suppressed at 100 uM; the pS6 peak near m/z 3710 shrinks from 1 uM to 100 uM in the four spectra” and the “conversion ratio of phosphorylated S6 substrate (mass spectrometry)” value is “Pep25-P2 repressed the phosphorylation of substrate S6 by ROCK”.

B2: MBP-ROCK1 (ROCK1 catalytic domain linked to maltose binding protein) (protein)
chain: MSTGDSFETRFEKMDNLLRDPKSEVNSDCLLDGLDALVYDLDFPALRKNKNIDNFLSRYKDTINKIRDLRMKAEDYEVVKVIGRGAFGEVQLVRHKSTRKVYAMKLLSKFEMIKRSDSAFFWEERDIMAFANSPWVVQLFYAFQDDRYLYMVMEYMPGGDLVNLMSNYDVPEKWARFYTAEVVLALDAIHSMGFIHRDVKPDNMLLDKSGHLKLADFGTCMKMNKEGMVRCDTAVGTPDYISPEVLKSQGGDGYYGRECDWWSVGVFLYEMLVGDTPFYADSLVGTYSKIMNHKNSLTFPDDNDISKEAKNLICAFLTDREVRLGRNGVEEIKRHLFFKNDQWAWETLRDTVAPVVPDLSSDIDTSNFDDLEEDKGEEETFPIPKAFVGNQLPFVGFTYYSNRRYLSSANPNDNR
On to B2, for which the “ROCK autophosphorylation under high ATP levels (1 mM)” value with peptide25 (ERTYSPSTAVRS) is listed as “blocked ROCK autophosphorylation”.
